According to article doi:10.1101/2023.12.06.569572:

Molecular target: Neurofibromin (NF1), recombinant full-length NF1 isoform 2 (human) (UniProt P21359)
Assay: mass photometry
Details: remark: other sources report otherwise

“Neurofibromin (NF1), recombinant full-length NF1 isoform 2, P21359 1-2839” showed a stoichiometry N of 2.
